Test [1] deals with human PD-L1 expressed on the cell surface (human, UniProt Q9NZQ7 19-290). The test can be described thus: cell-based or functional assay.
Test [2] concerns the target T1, mouse PD-L1 on IFN-gamma-treated MC38 murine colon cancer cells (mouse, UniProt Q9EP73 19-290).
T1 construct: whole, on cells; also called mouse PD-L1 protein
The test is described as follows: the sentence names no assay.

In test [3] the target is T2, PD-L1-Fc (PD-L1 antigen protein, extracellular region Met1-Thr239 fused to human Fc) (human, UniProt Q9NZQ7 19-239).
T2 construct: range 1-239; the secreted protein lacks it; also called PD-L1-Fc antigen; pCEP4-PDL1-Fc product; not shown: human Fc fragment of the pCEP4-Fc vector
T2 sequence (Q9NZQ7 19-239): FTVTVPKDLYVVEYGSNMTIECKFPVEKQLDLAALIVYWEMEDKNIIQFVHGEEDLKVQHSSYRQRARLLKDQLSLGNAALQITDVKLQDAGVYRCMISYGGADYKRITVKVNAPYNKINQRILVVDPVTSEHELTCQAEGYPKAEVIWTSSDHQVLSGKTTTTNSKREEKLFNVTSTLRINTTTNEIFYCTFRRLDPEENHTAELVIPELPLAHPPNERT
The test is described as follows: BLI (Octet); PD-1-coated biosensor dipped in a mix of PD-L1 antigen protein and antibody; KD from the Octet software.

Test [4] concerns the target T3, human PD-L1 antigen protein (Sino Biological) (human, UniProt Q9NZQ7 19-238).
T3 construct: Bought from Sino Biological
The test can be described thus: SPR (Biacore T200), antibody captured by anti-human IgG (Fc) on a CM5 chip, hPD-L1 as analyte, 1:1 binding model. The method, then:
(§1) 3) In order to remove the bound antibody every cycle, a regeneration solution (3 M MgCl₂) was injected at a flow rate of 30 μl/min for 30 seconds, and the experimental data were obtained using a 1:1 binding model of BIA evaluation software version 1.0.
Background: In SPR one partner is held on a chip, and binding of the other changes the refractive index at the surface.

The target in test [5] is T3, human PD-L1 antigen protein (Sino …). The test can be described thus: SPR (Biacore T200), antibody captured by anti-human IgG (Fc), PD-L1 as analyte, 1:1 model. The method, then: as §1
The target in test [6] is T4, mouse PD-L1 antigen protein (mouse, UniProt Q9EP73 19-238, limits assumed). The test is described as above. Here is the method:
as §1

For test [7], the target named is T4, mouse PD-L1 antigen protein. The test can be described thus: SPR (Biacore T200), antibody captured by anti-human IgG (Fc) on a CM5 chip, mPD-L1 as analyte, 1:1 binding model. The method, then: as §1

From patent publication US20220195049A1 (Scripps Research, published 2022) come the findings set out here.

Positions count from the first letter of the chain named.

T4 sequence (Q9EP73 19-238 limits assumed): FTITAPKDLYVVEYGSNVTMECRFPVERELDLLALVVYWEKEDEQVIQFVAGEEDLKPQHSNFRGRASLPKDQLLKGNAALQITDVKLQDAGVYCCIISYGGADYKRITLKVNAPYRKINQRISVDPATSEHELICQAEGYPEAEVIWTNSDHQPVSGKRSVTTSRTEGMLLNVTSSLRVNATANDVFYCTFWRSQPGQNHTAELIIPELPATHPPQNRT
T3 sequence (Q9NZQ7 19-238 limits assumed): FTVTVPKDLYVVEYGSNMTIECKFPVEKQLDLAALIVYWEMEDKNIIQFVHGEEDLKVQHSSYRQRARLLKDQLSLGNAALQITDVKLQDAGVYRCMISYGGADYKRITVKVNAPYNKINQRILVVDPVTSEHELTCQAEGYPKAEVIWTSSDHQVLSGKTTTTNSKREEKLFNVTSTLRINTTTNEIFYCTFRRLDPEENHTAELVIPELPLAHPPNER
Chain of human PD-L1 expressed on the cell surface (Q9NZQ7 19-290): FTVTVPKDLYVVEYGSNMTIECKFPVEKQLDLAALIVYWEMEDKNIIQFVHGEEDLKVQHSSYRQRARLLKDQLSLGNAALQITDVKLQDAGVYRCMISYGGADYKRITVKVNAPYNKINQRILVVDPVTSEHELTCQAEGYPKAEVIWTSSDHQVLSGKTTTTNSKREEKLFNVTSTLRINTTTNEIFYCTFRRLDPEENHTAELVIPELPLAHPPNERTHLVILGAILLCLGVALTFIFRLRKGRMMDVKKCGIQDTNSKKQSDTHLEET
T1 sequence (Q9EP73 19-290): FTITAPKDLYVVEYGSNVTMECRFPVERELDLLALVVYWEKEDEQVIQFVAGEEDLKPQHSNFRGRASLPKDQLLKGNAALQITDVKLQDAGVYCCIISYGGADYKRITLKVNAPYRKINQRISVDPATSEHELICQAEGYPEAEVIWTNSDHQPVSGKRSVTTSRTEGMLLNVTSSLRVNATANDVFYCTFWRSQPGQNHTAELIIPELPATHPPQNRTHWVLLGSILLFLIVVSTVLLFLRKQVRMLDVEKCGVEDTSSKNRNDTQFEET

B1: KL001 (PL110) (antibody, V domains shown)
VH: QVQLVESGAEVKKPGSSVKVSCKASGGTFSSYAISWVRQAPGQGLEWMGRIIPILGIANYAQKFQGRVTVTADKSTSTAYMELSSLRSEDTAVYYCARSGYSYAYGSFDYWGQGTLVTVSS
VL: QLVLTQPPSVSGAPGQTVTISCTGPTIGAGYDVHWYQQLPGAAPKLLIYGNLNRPSGVPDRFSGSKSGTSASLAITDLQAEDEADYYCQSYDSRLGVVFGGGTKLTVLR
notes: IgG (VH-CH1-hinge-CH2-CH3 and VL-Ck); also called KL001 clone
Broadly, the Kd is the equilibrium constant for the complex coming apart. A high value points to a looser complex. Consider B1, for which the “PD-1/PD-L1 binding inhibitory performance relative to 100% of the MK3475 antibody (Promega PD-1/PD-L1 Blockade Bioassay)” value in test [1] was 89%. For the same molecule, the binding result in test [2] is given as “binds”. The Kd in test [3] was determined as 58.4 pM.

B2: KL001-13 (antibody, human IgG1, kappa, V domains shown)
VH: B1 VH with S102G
VL: B1 VL with P25Q
notes: also called KL001-13 candidate antibody
One may read the koff as the rate constant with which the complex falls apart. Broadly, the kon is the rate constant with which the complex forms. High values mean faster complex formation, low ones slower complex formation. Take B2: the values for the koff in test [4] and in test [7] were 0.000319 s⁻¹ and 0.00878 s⁻¹, respectively. Moreover, the kon in test [4] is 5.05e+06 M⁻¹ s⁻¹; in test [7], 3.14e+06 M⁻¹ s⁻¹. Also, the Kd was ~63.2 pM in test [5], ~2800 pM in test [6] and 4.88 pM in test [3].

B3: KL001-08 (antibody, V domains shown)
VH: B1 VH with S31G, I54A, S102G
VL: QLVLTQPPSVSGAPGQTVTISCTGPTIGAGYDVHWYQQLPGAAPKLLIYGNLNRPSGVPDRFSGSKSGTSASLAITDLQAEDEADYYCQSYDSTHGVVFGGGTKLTVL
notes: In the Biacore assay it was captured by anti-human IgG (Fc), so it carried a human Fc there; also called KL001-8
Regarding B3, the koff was determined as 0.000277 s⁻¹ in test [4] and 0.0106 s⁻¹ in test [7]. Moreover, the kon in test [4] was determined as 4.13e+06 M⁻¹ s⁻¹; in test [7], 1.65e+06 M⁻¹ s⁻¹. Besides, the Kd in test [5] amounted to 67.1 pM; in test [6], 6400 pM; in test [3], 14.2 pM.
